Reference: the nanobody polyreactivity screen of Harvey et al. (2022)

Assay: yeast display, Sf9 membrane polyspecificity reagent, FACS + sequencing; frameworks hold sequencing errors
Summary of the method: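 In a synthetic yeast display library (Saccharomyces cerevisiae BJ5465), nanobody expression was induced with galactose for 36–48 hours. FACS gates were set low and high (top ~1%) using anti-HA fluorescence for expression and streptavidin fluorescence for binding of the Sf9 membrane reagent. Each polyreactivity label is drawn from the gate of origin.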

Row | Sequence | polyreactivity (PSR sort gate)
1 | QVQLVESGGGLVQAGGRLRLSCAASGSTSQSNAMGWYRQAPGKERELVAAISWSGTSTYYADSVKGRFTISRDNAKNTVYLQMNSLKPEDTAVYYCAADYIFDYDYWGQGTQVTVSS | low polyreactivity
2 | QVQLVESGGGLVQAGGRLRLSCAASGTIFPLNAMGWYRQAPGKERELVATISSGGSTYYADSVKGRFTISRDNAKNTVYLQMNSLKPEFTAVYYCAADSWVQFEYWGQGTQVTVSS | low polyreactivity
3 | QVQLVESGGGLVQAGGRLRLSCAASGTTAENVMGWYRQAPGKERELVAAISSRGGSTYYADSVKGRFTISRDNAKNTVYLQKNSLKPEDTAVYYCAAEYVSHFSGYRYDYWGQGTHVTVSS | low polyreactivity
4 | QVQLVESGGGLVQAGGRLRLSCAASGTTFFLYAMGWYRQAPGKERELVASISDGSSTNYADSVKVRFTISRDNAKNTVYLQMNSLKPEDTAVYYCAADFERRRYDYWGQGTQVTVSS | low polyreactivity
5 | QVQLVESGGGLVQAGGRLRLSCAASGYIFNYDMGWYRPAPGKERELVAAINYSGRTYYADSVKGRFTISRDNAKNTVYLQMNRLKAEDTAVYYCAARIIVDDVGTKYYYWGQGTQVTVSS | high polyreactivity
6 | QVQLVESGGGLVQAGGRLRLSCAASGYTFSIYDMGWYRPAPGKERELVAAISWSGGSTYYADSVKGRFTISRDHAKNTVYLQMNSLKPEDTAVYYCAAKRHGSEVGRGRDYWGQGTQVTVSS | high polyreactivity
7 | QVQLVESGGGLVQAGGRLRLSCADSGRIFLYYAKGWYRQAPGKEPELVAAISGGGGRTYYADSVKGRFTISRDNAKNTVYLQMNSLKPEDTAVYYWAAGVYTGQHEFDYWGQGTQVTVSS | low polyreactivity
8 | QVQLVESGGGLVQAGGRLRLSCAPSGTTFNPYTMGLYRQAPGKEGELVATITRIGGSTYYADSVKGRFTISRDNAKNTVYLQMNSLKPEDTAVYYCAADHYRSVRWRSNYTYRVNYWGQGTQVTVSS | high polyreactivity
9 | QVQLVESGGGLVQAGGRLRLSCASSGITFWTYAMGWYRQAPGKERELVAAISKSGGSTYYADSVKGRYTISRDNAKNNVYFELNSLKPEDTAVYYCAAKGLRYRDIDYDYWGQGTQVTVSS | low polyreactivity
10 | QVQLVESGGGLVQAGGRLRLSSAASGRTFFGSYAMGWYRQAPGKERELVADIRSGGNTNYADSVKGRFTISRDNAKNTVYLQMNRLKPDDTAVYYCASDGYSIVVYHPDYRYVYWGQGTQLTVSS | low polyreactivity
11 | QVQLVESGGGLVQAGGRLRLTCAASGFTFRYYAMGWYRQAPGKERELVATITRGGSTNYAESVKWRFTISRDNAKNTVYFQMNSLKPEDTAVYYCATGKIYWRGYEYWGQGTQVTVSS | high polyreactivity
12 | QVQLVESGGGLVQAGGRLSLSCAASGITFLGYAMGWYREAPGKDSELVAAISSGGSTYYADSVKGRFTISRDNAKNTVYLQMNILKPEDTAVYYCAKAVYYRDPYGGDYWGQGTQVTVSS | low polyreactivity
13 | QVQLVESGGGLVQAGGRLSLSSAASGITFRNYAMGWYRQAPGKERQLVAAISRRGGSTYYADSVKGRFTISRDNAKNTVYLQMNSLKPEDTAVYYCAKSPDTAKEYDYWGQGTQVTVSS | high polyreactivity
14 | QVQLVESGGGLVQAGGSFRLSCAASGGTFDTYVMGWYRQAPGKERELVAVITRGASTYYADSVKGRFTISRDNAKNTVYLQMNSLKPEDTAVYYCAAAVYSPDYYRFWYSFDYWGQGTQVTVTS | low polyreactivity
15 | QVQLVESGGGLVQAGGSFRLSCAASGRIFSPNAMGWYRQAPGKEREFVAAINDRGGNTYYADSVKGRFTISRDNAKNTVYLQMNSLKPEDTAVYYCAATVTVFYTRYYYWGQGTQVTVSS | high polyreactivity
16 | QVQLVESGGGLVQAGGSGRLSCAASGSIFFAYGMGWYRQATGTERELVAAIPNSGTSTYYADSVKGRFTISRDNAKNSDYLQMNSLKPEDTAVFYCARDNEPDYYSYPYDYWGEGTQVTVSS | low polyreactivity
17 | QVQLVESGGGLVQAGGSHRISCAASGNTFVINTMGWYRQAPGKERELVAGISRRGTSTYYADSVKGRFTISRDNAKNTVYLQMNSLKPEDTAVYYCAVYAEIVRYEYWGQGTQVTVSS | high polyreactivity
18 | QVQLVESGGGLVQAGGSHRLSCAASGFIFYYYTRGWYRQAPGKERELVAAISRGRGSTYYADSVKGRFTISRDNAKNTVYLQMNSLKPEDTAVYYCARTDRRLGAHQGDYWGQGTQVTVSS | high polyreactivity
19 | QVQLVESGGGLVQAGGSHRLSCAASGFTSAVNTMGWYRQAPGKEREFVASISRNGGSTYYADSVKGRFTITRDNAKNTVYLQINSLKPEDTAVYYCNTRVPNYAFRRSRYDYWGQGTQVTVSS | high polyreactivity
20 | QVQLVESGGGLVQAGGSHRLSCAASGIIFGRYAMGSYIQAPGKERELVAAITSGGSTSYSDSVKGRFTISRDNAKNTVYLQMNSLKPEDTAVYYCAARGWYVRHPQNYGYWGQGTQVTVSS | high polyreactivity
21 | QVQLVESGGGLVQAGGSHRLSCAASGIIFILYTMGWYRQAPGKERELVATISSGGGSTFYADSVKGRFTISRDNAKNTVYLQMNSLKPEDTAVYYCAAYPVFGYSYDYWGQGTQVTVSS | low polyreactivity
22 | QVQLVESGGGLVQAGGSHRLSCAASGLIFYYYAMGWYRQAPGKERELVAAITWTAGSTSYADSVKGRFTISRDNAKNTVYLQMNSLKPEDTAVYYCAADYRHDTFSNEYDYWGQGTQVTVSS | low polyreactivity

Row | Sequence | polyreactivity (PSR sort gate)
23 | QVQLVESGGGLVQAGGSHRLSCAASGRIFGTYAMGWYRQAPGKDRELVAAISFSGGSTYYADSVKGRFTISRDNAKNTVYLQMNSLKPDDTAVYYGAAGYRTYYGYRYGYWGQGTQVTVSS | high polyreactivity
24 | QVQLVESGGGLVQAGGSHRLSCAASGRIFNNNAMGWYRQAPGTEREFVAAISSGGGSTYYADSVKGRFTISRDNAKNTVYLQMNSLKPEDTAVYYCAARRHGRVDYSQGSRESYYWGQGTQVTVSS | high polyreactivity
25 | QVQLVESGGGLVQAGGSHRLSCAASGRIFRGYPMGWYRPAPGKERELGAAITSRGGSTYADSVKGRFTISRDNAKNTVYLQMNSLKPEDSAVYYCNAGYRAYSAKLVFRGYPRYDYWGQGTQVTVSS | low polyreactivity
26 | QVQLVESGGGLVQAGGSHRLSCAASGRIFRPYAMGWYRQAPGKEREFVATITRSVGRTYYADSVKGRFTISRDNAKNTVYLQMNSLKPEDTAVYYCATKYIRGTRADVYRFDYWGQGTQVTVSS | high polyreactivity
27 | QVQLVESGGGLVQAGGSHRLSCAASGRTFAPNAMGWYRQAPGKERELVAAISSVGITYYADSVNGRFTISRDNAKNTVYLQMNSLNPEDTAVYYCAKVRKTRSITDGYGYWGQGTQVTVSS | low polyreactivity
28 | QVQLVESGGGLVQAGGSHRLSCAASGRTFGGNVMGWYRPAHWKERELVAAISSTGDRTYYADSVKGRFTISRDNAKNTVYLQMYSLKPEDTAVYYCAARPAYRSSYYWGQGTQVTVSS | high polyreactivity
29 | QVQLVESGGGLVQAGGSHRLSCAASGRTFKLYAMGWYRQAPGKERELVAAITESGRSTYYADSVKGRFTFSRDNAKNTVYLQMNSLKPEDTAVYYCAALGIGSYRRYSGYDYWGQGTQVTVSS | low polyreactivity
30 | QVQLVESGGGLVQAGGSHRLSCAASGRTFQENGMGWYRQAPGKERELVATISQRGTSTYYADSVKGRFTISRDNAKNTVYLQMNSLKPEDTAVYYCARRRVYRWYTGDYWGQGTQVTVSS | low polyreactivity
31 | QVQLVESGGGLVQAGGSHRLSCAASGRTFRINAMGWYRQAPGKERELVAAISRSGGSTYYADSVKGRFTISRDNAKNTVYLQMTSVKPEDTAVYYCAARPYYTWRYLPTKSGDYWGQGTLVTVSS | low polyreactivity
32 | QVQLVESGGGLVQAGGSHRLSCAASGRTFYQNAMGWYRQAPGKERELVATISQRGGSTYYADSVKGRFTISRDTAKNTVYLQMNSLKPEDTAVYYCAKGRYAYSIWDDYWGQGTQVTVSS | low polyreactivity
33 | QVQLVESGGGLVQAGGSHRLSCAASGRTFYRYVMGWYRQAPGKERELVAAIRSSGTSTYYADSVKGRFTISRDNAKNTVYLQINSLKPEDTAVNYCARDSYRGYVYSLDYWGQGNQVTVSS | high polyreactivity
34 | QVQLVESGGGLVQAGGSHRLSCAASGRTFYTNAMGWYRQEPGKERELVARIRRGGTTNYADSVKGRFTISRDNAKNTVYLQMNILKPEDTAVSYCNARRHGGVQPFYFYRNQYELDYWGLGTQVTVSS | high polyreactivity
35 | QVQLVESGGGLVQAGGSHRLSCAASGSIFGVYVMGWYRQAPGKERELVAAITRGASTNYADSVKGRFTISRDNAKNSVYLQMNSLKPEDTAVYYCAARQVSVSGHQYGYWGQGSQVTVSS | low polyreactivity
36 | QVQLVESGGGLVQAGGSHRLSCAASGSIFYQYAMGSYRQAPGKERELVAAITWIGSTYYADSVKGRFTISRDNAKNTVYLQMNSLKPEDTAVYYCNTDPYVLQKYDYWGQGTQVTVSS | low polyreactivity
37 | QVQLVESGGGLVQAGGSHRLSCAASGSILDTYAMGWYRQAPGKERELVAAISRGGRTYYADSVKGRFTLSRDNAKNTVYLQMNSLKPEDTAVYYCNTLTRLVYDGMGYWGQGTQVTVSS | high polyreactivity
38 | QVQLVESGGGLVQAGGSHRLSCAASGSILWENAMGWYIQAPRKERELVATISVSGGGTYYADSVKGRFTISRDKAKNTDYLQMNSLKPEDTAVYYCNARYGYESQGWEDYWGQGTQVTVSS | low polyreactivity
39 | QVQLVESGGGLVQAGGSHRLSCAASGSISRRYAMGWYRQAPGKERELVAAINQSGGRTYYADSVKGRFTISRDNAKNTVYLQMNSLKPEDTAVYYCAARLSGYDYWGQGTQVTVSS | high polyreactivity
40 | QVQLVESGGGLVQAGGSHRLSCAASGSTFLNNAMGWYRQAPGKERELVATITSGGITNYADSVKGRFTISRDNAKNTVYLQMNSLKPEDTAVYYCNGETWGFTYYYWGQGTQVTVSS | low polyreactivity
41 | QVQLVESGGGLVQAGGSHRLSCAASGSTFNYYAMGWYRQAPGKERELVAAISRGGSTYYADSVKGRFTISRDNAKNTVYLQMNSLKPEDNAVYYCHARPTRIYHGMGFWGQGTQVNVSS | low polyreactivity
42 | QVQLVESGGGLVQAGGSHRLSCAASGSTFTWYPMGWYRQEPGKERELVADISYGGGSTYYADSVKGRFTISRDNAKNTVYLQMNSLKPEDTAVYYCAAESIPYYRYDYWGQGTQVTVSS | low polyreactivity
43 | QVQLVESGGGLVQAGGSHRLSCAASGSTFVLYALGWYRQAPGKERELVAVISWSGGSTYYADSVKGRFTISRDNAKNTVYLQMNSLKPEDTAVYYCAATGWSSFYYRFDYWGQGTQVTVSS | low polyreactivity
